B1: KRT71 (parent)
chain: FGSRSLYSLGGVRSLNVASGSGKS

Variants of: B1
Experiment: protein stability index of a GFP-peptide fusion (GPS, HEK-293T) (PSI 1-6); higher = more stable
Conditions: c terminus: a fixed tail appended
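Further: lentivirally expressed fusions sorted by FACS into six bins by GFP to DsRed ratio, PSI derived from sequencing read proportions per bin multiplied by bin number.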

Compared with FGSRSLYSLGMVRSLNVASGSGKS [G11M], FGSRSLYSLGPVRSLNVASGSGKS [G11P] is lower in protein stability index: 2.71 for the first, 1.8 for the second.

Compared with FGSRSLYSLGDVRSLNVASGSGKS [G11D], FGSRSLYSLGHVRSLNVASGSGKS [G11H] is higher in protein stability index: 2.25 for the first, 2.33 for the second.

Going from FGSRSLYSLGQVRSLNVASGSGKS [G11Q] to FGSRSLYSLGNVRSLNVASGSGKS [G11N], the protein stability index falls from 3.2 to 2.24.

Compared with FGSRSLYSLGKVRSLNVASGSGKS [G11K], FGSRSLYSLGRVRSLNVASGSGKS [G11R] is higher in protein stability index: 1.64 for the first, 2.46 for the second.

Going from FGSRSLYSLGCVRSLNVASGSGKS [G11C] to FGSRSLYSLGEVRSLNVASGSGKS [G11E], the protein stability index rises from 2.87 to 2.92.

Compared with FGSRSLYSLGSVRSLNVASGSGKS [G11S], FGSRSLYSLGLVRSLNVASGSGKS [G11L] is higher in protein stability index: 2.11 for the first, 2.9 for the second.

Compared with FGSRSLYSLGIVRSLNVASGSGKS [G11I], FGSRSCYSLGGVRSLNVASGSGKS [L6C] is lower in protein stability index: 5.35 for the first, 2.04 for the second.

First: FGSRSIYSLGGVRSLNVASGSGKS [L6I]
Second: FGSRSRYSLGGVRSLNVASGSGKS [L6R]
The protein stability index of the first is lower: 2.29 for the first, 2.65 for the second.

First: FGSRSDYSLGGVRSLNVASGSGKS [L6D]
Second: FGSRSKYSLGGVRSLNVASGSGKS [L6K]
The protein stability index of the first is higher: 3.7 for the first, 2.91 for the second.

First: FGSRSFYSLGGVRSLNVASGSGKS [L6F]
Second: FGSRSPYSLGGVRSLNVASGSGKS [L6P]
The protein stability index of the first is higher: 3.13 for the first, 1.74 for the second.

First: FGSRSVYSLGGVRSLNVASGSGKS [L6V]
Second: FGSRSEYSLGGVRSLNVASGSGKS [L6E]
The protein stability index of the first is lower: 1.62 for the first, 3.14 for the second.

First: FGSRSNYSLGGVRSLNVASGSGKS [L6N]
Second: FGSRSHYSLGGVRSLNVASGSGKS [L6H]
The protein stability index of the first is higher: 2.76 for the first, 2.33 for the second.

First: FGSRSMYSLGGVRSLNVASGSGKS [L6M]
Second: FGSRSSYSLGGVRSLNVASGSGKS [L6S]
The protein stability index of the first is lower: 1.93 for the first, 2.13 for the second.

Going from FGSRSAYSLGGVRSLNVASGSGKS [L6A] to FGSRSYYSLGGVRSLNVASGSGKS [L6Y], the protein stability index falls from 1.67 to 1.48.

First: FGSRSQYSLGGVRSLNVASGSGKS [L6Q]
Second: FGSRSWYSLGGVRSLNVASGSGKS [L6W]
The protein stability index of the first is lower: 2.62 for the first, 2.94 for the second.

First: FGSRSGYSLGGVRSLNVASGSGKS [L6G]
Second: FGSRSTYSLGGVRSLNVASGSGKS [L6T]
The protein stability index of the first is lower: 1.77 for the first, 3.13 for the second.

First: FGRRSLYSLGGVRSLNVASGSGKS [S3R]
Second: FGHRSLYSLGGVRSLNVASGSGKS [S3H]
The protein stability index of the first is lower: 1.97 for the first, 2.06 for the second.

First: FGARSLYSLGGVRSLNVASGSGKS [S3A]
Second: FGNRSLYSLGGVRSLNVASGSGKS [S3N]
The protein stability index of the first is higher: 2.19 for the first, 1.26 for the second.

Compared with FGERSLYSLGGVRSLNVASGSGKS [S3E], FGTRSLYSLGGVRSLNVASGSGKS [S3T] is lower in protein stability index: 2.22 for the first, 1.95 for the second.

Compared with FGQRSLYSLGGVRSLNVASGSGKS [S3Q], FGMRSLYSLGGVRSLNVASGSGKS [S3M] is higher in protein stability index: 2.09 for the first, 2.21 for the second.

Compared with FGIRSLYSLGGVRSLNVASGSGKS [S3I], FGCRSLYSLGGVRSLNVASGSGKS [S3C] is lower in protein stability index: 2.37 for the first, 1.56 for the second.

First: FGFRSLYSLGGVRSLNVASGSGKS [S3F]
Second: FGVRSLYSLGGVRSLNVASGSGKS [S3V]
The protein stability index of the first is lower: 2.22 for the first, 2.23 for the second.

First: FGGRSLYSLGGVRSLNVASGSGKS [S3G]
Second: FGLRSLYSLGGVRSLNVASGSGKS [S3L]
The protein stability index of the first is lower: 1.84 for the first, 2.47 for the second.

Going from FGDRSLYSLGGVRSLNVASGSGKS [S3D] to FGPRSLYSLGGVRSLNVASGSGKS [S3P], the protein stability index rises from 1.43 to 2.71.

Going from FGKRSLYSLGGVRSLNVASGSGKS [S3K] to FGYRSLYSLGGVRSLNVASGSGKS [S3Y], the protein stability index rises from 1.78 to 2.7.

Compared with FGWRSLYSLGGVRSLNVASGSGKS [S3W], FGSRSLYSLVGVRSLNVASGSGKS [G10V] is lower in protein stability index: 1.59 for the first, 1.58 for the second.

Going from FGSRSLYSLDGVRSLNVASGSGKS [G10D] to FGSRSLYSLQGVRSLNVASGSGKS [G10Q], the protein stability index falls from 2.51 to 2.08.

First: FGSRSLYSLCGVRSLNVASGSGKS [G10C]
Second: FGSRSLYSLAGVRSLNVASGSGKS [G10A]
The protein stability index of the first is higher: 3.19 for the first, 1.66 for the second.

Going from FGSRSLYSLYGVRSLNVASGSGKS [G10Y] to FGSRSLYSLPGVRSLNVASGSGKS [G10P], the protein stability index rises from 1.94 to 2.03.

First: FGSRSLYSLEGVRSLNVASGSGKS [G10E]
Second: FGSRSLYSLSGVRSLNVASGSGKS [G10S]
The protein stability index of the first is higher: 2.31 for the first, 1.83 for the second.

First: FGSRSLYSLLGVRSLNVASGSGKS [G10L]
Second: FGSRSLYSLIGVRSLNVASGSGKS [G10I]
The protein stability index of the first is lower: 2.6 for the first, 3.84 for the second.

Compared with FGSRSLYSLKGVRSLNVASGSGKS [G10K], FGSRSLYSLMGVRSLNVASGSGKS [G10M] is higher in protein stability index: 1.9 for the first, 2.09 for the second.

Compared with FGSRSLYSLNGVRSLNVASGSGKS [G10N], FGSRSLYSLFGVRSLNVASGSGKS [G10F] is lower in protein stability index: 2.16 for the first, 1.5 for the second.

Going from FGSRSLYSLHGVRSLNVASGSGKS [G10H] to FGSRSLYSLRGVRSLNVASGSGKS [G10R], the protein stability index falls from 2.56 to 1.6.

Going from FGSRSLYSLTGVRSLNVASGSGKS [G10T] to FGSRSLYSLWGVRSLNVASGSGKS [G10W], the protein stability index rises from 2.05 to 2.79.

Going from FGSRWLYSLGGVRSLNVASGSGKS [S5W] to FGSRALYSLGGVRSLNVASGSGKS [S5A], the protein stability index rises from 2.33 to 2.35.

First: FGSRGLYSLGGVRSLNVASGSGKS [S5G]
Second: FGSRRLYSLGGVRSLNVASGSGKS [S5R]
The protein stability index of the first is lower: 1.6 for the first, 2.77 for the second.

First: FGSRNLYSLGGVRSLNVASGSGKS [S5N]
Second: FGSRLLYSLGGVRSLNVASGSGKS [S5L]
The protein stability index of the first is lower: 1.99 for the first, 2.15 for the second.

Compared with FGSRQLYSLGGVRSLNVASGSGKS [S5Q], FGSRTLYSLGGVRSLNVASGSGKS [S5T] is lower in protein stability index: 2.16 for the first, 1.64 for the second.

Going from FGSRPLYSLGGVRSLNVASGSGKS [S5P] to FGSRFLYSLGGVRSLNVASGSGKS [S5F], the protein stability index falls from 2.91 to 1.95.

First: FGSRKLYSLGGVRSLNVASGSGKS [S5K]
Second: FGSRYLYSLGGVRSLNVASGSGKS [S5Y]
The protein stability index of the first is higher: 2.65 for the first, 1.36 for the second.

First: FGSRMLYSLGGVRSLNVASGSGKS [S5M]
Second: FGSRILYSLGGVRSLNVASGSGKS [S5I]
The protein stability index of the first is lower: 1.62 for the first, 2.19 for the second.

Going from FGSRDLYSLGGVRSLNVASGSGKS [S5D] to FGSRELYSLGGVRSLNVASGSGKS [S5E], the protein stability index rises from 2.31 to 2.77.

Compared with FGSRVLYSLGGVRSLNVASGSGKS [S5V], FGSRCLYSLGGVRSLNVASGSGKS [S5C] is lower in protein stability index: 1.9 for the first, 1.5 for the second.

First: FGSRHLYSLGGVRSLNVASGSGKS [S5H]
Second: FGSRSLYSHGGVRSLNVASGSGKS [L9H]
The protein stability index of the first is lower: 2.24 for the first, 2.75 for the second.

Going from FGSRSLYSTGGVRSLNVASGSGKS [L9T] to FGSRSLYSIGGVRSLNVASGSGKS [L9I], the protein stability index falls from 2.64 to 1.75.

Compared with FGSRSLYSKGGVRSLNVASGSGKS [L9K], FGSRSLYSDGGVRSLNVASGSGKS [L9D] is higher in protein stability index: 2.27 for the first, 2.56 for the second.

— the supplement of paper PMC10567573
